The results in this text go back to patent US20150218230.

What all share (assay): cell_activity
For data set [1], the system named is TALE-nuclease collection F HD-NG-HD (synthetic).
For data set [2], the system named is TALE-nuclease collection F HD-NN-NN (synthetic).
Data set [3] deals with TALE-nuclease collection F NG-HD-HD (synthetic).
In data set [4] the test system is TALE-nuclease collection F NG-HD-NG (synthetic).
For data set [5], the system named is TALE-nuclease collection F NG-HD-NI (synthetic).
Data set [6] concerns TALE-nuclease collection F NG-HD-NN (synthetic).
The test system of data set [7] is TALE-nuclease collection F NG-NG-HD (synthetic).
Data set [8] has as its system TALE-nuclease collection F NG-NG-NG (synthetic).
For data set [9], the system named is TALE-nuclease collection F NG-NG-NI (synthetic).
In data set [10] the test system is TALE-nuclease collection F NG-NG-NN (synthetic).
Data set [11] concerns TALE-nuclease collection F NG-NI-HD (synthetic).
Data set [12] has as its system TALE-nuclease collection F NG-NI-NG (synthetic).
Data set [13] has as its system TALE-nuclease collection F NG-NI-NI (synthetic).
Data set [14] relates to TALE-nuclease collection F NG-NI-NN (synthetic).
The test system of data set [15] is TALE-nuclease collection F NG-NN-HD (synthetic). To be noted: GFP disruption, mammalian cells, rank 1.
Data set [16] relates to TALE-nuclease collection F NG-NN-NG (synthetic).
In data set [17] the test system is TALE-nuclease collection F NG-NN-NN (synthetic).
Data set [18] relates to TALE-nuclease collection F NI-NG-HD (synthetic).
The test system of data set [19] is TALE-nuclease collection F NI-NN-NG (synthetic).
Data set [20] deals with TALE-nuclease collection F NI-NN-NN (synthetic).
The subject of data set [21] is TALE-nuclease collection F NN-NG-NI (synthetic).
The subject of data set [22] is TALE-nuclease collection F NN-NI-HD (synthetic).
In data set [23] the test system is TALE-nuclease collection F NN-NI-NG (synthetic).
Data set [24] relates to TALE-nuclease collection F NN-NI-NN (synthetic).

Consider “integrated GFP locus TALE-nuclease target”, for which the activity (% GFP negative cells) in data set [1] is 3.9; in data set [2] it was 4.4; in [3], 18.9; in data set [4], 14.7; in data set [5] it was 4.5; in data set [6], 6.5. In addition, the activity (% GFP negative cells) in data set [7] is 21; in [8], 19.5; in data set [9], 9.4; in [10] it was 18.6; in data set [11] it was 22.8; in data set [12], 18.3. For the same substance, the activity (% GFP negative cells) in [13] was 12.6; in data set [14], 17.7; in [15] it was 28.8; in data set [16] it was 22.2; in data set [17], 19.8; in data set [18], 3.6. Moreover, the activity (% GFP negative cells) was 5.9 in data set [19]; 6.2 in [20]; 7.6 in data set [21]; 5.3 in [22]; 5.1 in data set [23]; 3.2 in [24].
